Data published in paper PMC2576564 (Frontiers in Molecular Neuroscience, 2008).

Target: the molecule itself
Test: SEC; Superdex 200 16/60 column, after Ni-NTA purification of the secreted protein

B1: extracellular domain of human DPP6-L (residues 117–865) (domain or fragment)
chain: not shown
modifications: glycosylated
For B1, the “stoichiometry N” value was 2.
